Patent US20240325557A1, “TREATMENT OF CANCER” (INNATE PHARMA, priority 2020, published 2024)
Changes are numbered by the printed parent chain.

B1: N41 (antibody, V domains shown)
VH: QVQLKQSGPGLVQPSQSLSITCTVSGFSLTNYGVHWVRQSPGKGLEWLGVIWSGGSTDYNAAFISRLSISKDTSKSQVFFKMNSLQADDTAIYYCARELIHAMDNWGQGTSVTVSS
VL: DIQMTQSPASLSVSVGETVTITCRASENIYSNLAWYQQKQGNSPQLLVFAATNLADGVPSRFSGSGSGTQYSLKINSLQSEDFGTYYCQHFWGTPTFGGGTKLEIK
B2: 5E7 (antibody, V domains shown)
VH: QVQLQQPGAELVKPGASVKLSCKASGYIFTSYWMHWVKQRPGQGLEWIGEIDPSDSYTNYNQKFKGKATLTLDKSSSTTYMQLSSLTSEDSAVYYCVRGYGNYGDYWGQGTTLTVSS
VL: DVVMTQAAFSNPVTLGTSASISCRSSKSLLHSNGITYLYWYLQKPGQSPQLLIYQMSNLASGVPDRFSSSGSGTDFTLRISRVEAEDVGVYYCAQNLELPWTFGGGTKLEIK
B3: 10B12: anti-Nectin-4 antibody, VH SEQ ID NO: 24, VL SEQ ID NO: 25, binds junction of domain C1 and V (antibody, listed as Mus musculus, V domains shown)
VH: B2 VH with I28T, L72V, T79A
VL: B2 VL with V2I

Target: T1, Nectin-4 Mutant 6 (H238A/I239T/H241Q) (Homo sapiens, UniProt Q96NY8, H238A/H241Q/I239T)
T1 construct: expressed in transfected cells; host or cells: HEK293T
T1 sequence (Q96NY8 32-510 H238A/I239T/H241Q): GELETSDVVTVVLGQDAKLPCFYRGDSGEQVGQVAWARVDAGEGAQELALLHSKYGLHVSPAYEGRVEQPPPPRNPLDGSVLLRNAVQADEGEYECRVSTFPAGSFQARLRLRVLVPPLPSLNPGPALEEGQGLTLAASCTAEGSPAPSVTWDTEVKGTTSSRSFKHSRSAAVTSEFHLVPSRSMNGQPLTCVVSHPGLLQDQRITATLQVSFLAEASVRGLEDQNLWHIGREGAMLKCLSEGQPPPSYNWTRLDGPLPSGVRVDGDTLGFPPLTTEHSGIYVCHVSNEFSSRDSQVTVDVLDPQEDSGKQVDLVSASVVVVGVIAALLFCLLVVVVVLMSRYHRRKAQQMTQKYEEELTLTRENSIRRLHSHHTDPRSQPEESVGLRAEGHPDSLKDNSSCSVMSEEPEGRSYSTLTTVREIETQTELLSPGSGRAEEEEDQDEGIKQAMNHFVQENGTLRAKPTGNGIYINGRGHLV
Assay: Binding to cell surface expressed Nectin-4 point mutant
Conditions: HEK-293T
Excerpt: (§1) Combined with the published structures of the Nectin-4 domains, Nectin-4 mutations at surface exposed amino acids residues were designed. Nectin-4 domain structure was modelled based on Protein Data Bank reference: 4FRW (domains V et C1). Human Nectin-4 used was NCBI Reference Sequence: NP_112178.2, mouse Nectin-4 used was NCBI Reference Sequence: AAL79833.1, cynomolgus Nectin-4 used was NCBI Reference Sequence: XP_005541277.1, rat Nectin-4 used was NCBI Reference Sequence: NP_001102546.1. The cells expressing the Nectin-4 mutants are then be used for testing anti-Nectin-4 antibodies for loss of binding to different Nectin-4 mutants to identify antibodies that bind to the same site on Nectin-4. […] FIGS. 12A and 12B show a molecular model of the human Nectin-4 protein, indicating the position of substituted residues in mutants 7 (12A) and in mutants 7bis (12B); these mutants are in the C1 domain identify two sites at the junction of domain C1 and V domain that are on opposing faces of the Nectin-4 protein.
(§2) Nectin-4 mutants were generated by PCR. The sequences amplified were run on agarose gel and purified using the Macherey Nagel PCR Clean-Up Gel Extraction kit. The purified PCR products generated for each mutant were then ligated into an expression vector, with the ClonTech InFusion system. The vectors containing the mutated sequences were prepared as Miniprep and sequenced. After sequencing, the vectors containing the mutated sequences were prepared as Midiprep using the Promega PureYield™ Plasmid Midiprep System. HEK293T cells were grown in DMEM medium (Invitrogen), transfected with vectors using Invitrogen's Lipofectamine 2000 and incubated at 37° C. in a CO2 incubator for 48 hours prior to testing for transgene expression. The targeted amino acid mutations are shown in Table 2 below, listing the residue present in wild-type Nectin-4/position of residue/residue present in mutant Nectin-4, with position reference being to the Nectin-4 protein with leader peptide shown in SEQ ID NO: 1.

Molecule	association with Nectin-4 Mutant 6
B1	+
B2	+
B3	+

Target: T2, Nectin-4 Mutant 7 (S195A/K197T/S199A) (Homo sapiens, UniProt Q96NY8, K197T/S195A/S199A)
T2 construct: expressed in transfected cells; host or cells: HEK293T
T2 sequence (Q96NY8 32-510 S195A/K197T/S199A): T1 sequence (Q96NY8 32-510 H238A/I239T/H241Q) with S164A, K166T, S168A, A207H, T208I, Q210H
Assay: as above
Conditions: HEK-293T
Excerpt: as §1, §2

Molecule	association with Nectin-4 Mutant 7
B1	+
B2	−
B3	−

Target: T3, Nectin-4 Mutant 8 (T190A/T191Q/S193A) (Homo sapiens, UniProt Q96NY8, S193A/T190A/T191Q)
T3 construct: expressed in transfected cells; host or cells: HEK293T
T3 sequence (Q96NY8 32-510 T190A/T191Q/S193A): T1 sequence (Q96NY8 32-510 H238A/I239T/H241Q) with T159A, T160Q, S162A, A207H, T208I, Q210H
Assay: as above
Conditions: HEK-293T
Excerpt: as §1, §2

Molecule	association with Nectin-4 Mutant 8
B1	+
B2	+
B3	+

Target: T4, Nectin-4 Mutant 9 (L150S/S152A/Q234R/I236S) (Homo sapiens, UniProt Q96NY8, I236S/L150S/Q234R/S152A)
T4 construct: expressed in transfected cells; host or cells: HEK293T
T4 sequence (Q96NY8 32-510 L150S/S152A/Q234R/I236S): T1 sequence (Q96NY8 32-510 H238A/I239T/H241Q) with L119S, S121A, Q203R, I205S, A207H, T208I, Q210H
Assay: as above
Conditions: HEK-293T
Excerpt: as §1, §2

Molecule	association with Nectin-4 Mutant 9
B1	+
B2	+
B3	+
